# Assay results taken from patent US20170151339A1 (priority 2014, published 2017).
# Where a SMILES comes first, the peptide text is derived from it. Bridges are numbered along the chain shown (N, C = ends). [ ]: non-standard residue; d: D form. The star is where a group is joined. X1 = COc1cc2cc(c1Cl)N(C)C(=O)[C@H](OC(=O)[C@H](C)N(C)C(=O)CCS*)[C@]1(C)O[C@H]1[C@H](C)[C@@H]1C[C@@](O)(NC(=O)O1)[C@H](OC)/C=C/C=C(\C)C2; Thr(ol) = C[C@@H](O)[C@H](N)CO
# Assays:
# [1] = Pharmacokinetics of cabazitaxel-RGD nanoparticles in rats; type: in vivo; details: rat, 1 mg/kg IV bolus, plasma
# Method: Nanoparticles are typically formulated in 10% sucrose and free drug formulations varied, but are typically dosed in 10% SOLUTOL®/10% sucrose, or physiological saline.
# (§1) For PK studies, a 0.1 mg/mL solution was dosed at 10 mL/kg such that a 1 mg/kg IV bolus dose was introduced by tail vein injection into rats Following compound administration, blood was collected at 0.083 h, 0.25 h, 0.5 h, 1 h, 2 h, 4 h, 8 h, and 24 h post dose into lithium heparin coated vacuum tubes. Tubes were inverted for 5 minutes and then placed on wet ice until centrifuged for 5 minutes at 4° C. at 6000 rpm. Plasma was harvested, frozen at −80° C. and shipped to for bioanalysis on dry ice.
# 50 uL of rat plasma were precipitated with 300 uL of DMF and the resulting supernatant was measured for compound content by LC-MS/MS electrospray ionization in the positive mode.
# [2] = Tolerability in rat PK study of cabazitaxel-RGD nanoparticles; type: in vivo; details: rats, 1 mg/kg dose IV
# Method: as §1
# [3] = Solubility in aqueous media containing Tween 80; type: physicochemical; details: aqueous Tween 80
# Description: In certain formulations, conjugate 1′ was used without any changes to its native lipophilicity (free conjugate). […] The tendency of conjugate 1 to retain in the nanoparticle despite a high aqueous solubility in Tween/water could be due to the high lipophilicity of cabazitaxel and its compatibility/miscibility with the polymeric matrix. The presence of leucine, proline, tryptophan and tyrosine in the LHRH peptide may also assist in the interaction of the conjugate with the polymeric matrix.
# In certain formulations, conjugate 1 was used without any changes to its native lipophilicity (free conjugate). […] Without committing to any particular theory, the tendency of conjugate 1 to retain in the nanoparticle despite a high aqueous solubility in Tween®/water could be due to the high lipophilicity of cabazitaxel and its compatibility/miscibility with the polymeric matrix. The presence of two phenylalanine amino acids in the octreotide peptide may also assist in the interaction of the conjugate with the polymeric matrix.
# In some formulations, conjugate 2 was used without any changes to its native lipophilicity (free conjugate). […] The tendency of 2 to be retained in the nanoparticle was reduced compared to 1.
# [4] = Rat pharmacokinetics of nanoparticle formulations of 1′; type: in vivo; details: rats, 1 mg/kg IV bolus, plasma, dose normalized, Table 3
# Method: Nanoparticles described herein were typically formulated in 10% sucrose and free drug formulations were generally formulated typically dosed in 10% Solutol®/l 0% sucrose, or physiological saline.
# (§2) For pharmacokinetic studies, a 0.1 mg/mL solution was dosed at 10 mL/kg such that a 1 mg/kg IV bolus dose was introduced by tail vein injection into rats. Following compound administration, blood was collected at 0.083 hours, 0.25 hours, 0.5 hours, 1 hour, 2 hours, 4 hours, 8 hours, and 24 hours post-dose into lithium heparin coated vacuum tubes. Tubes were inverted for 5 minutes and then placed on wet ice until centrifuged for 5 minutes at 4° C. at 6000 rpm. Plasma was harvested, frozen at −80° C. and shipped to for bioanalysis on dry ice.
# 50 uL aliquots of rat plasma were precipitated with 300 uL of DMF and the resulting supernatant was measured for compound content by LC-MS/MS electrospray ionization in the positive mode.
# [5] = tested on: NCI-H524 (ATCC) human lung cancer cells; type: cell-based; details: for IC50: treated 2 hours, further incubated 70 hours
# Method: Conjugates were assessed in an in vitro assay evaluating inhibition of cell proliferation. NCI-H524 (ATCC) human lung cancer cells were plated in 96 well, V-bottomed plates (Costar) at a concentration of 5,000 cells/well and 24 hours later were treated with compound for 2 hours and further incubated 70 hours. Compound starting dose was 20 μM and three fold serial dilutions were done for a total of ten points. After 2 hours of treatment, cells were spun down, the drug containing media was removed, and fresh complete medium was added and used to resuspend the cells, which were spun again. After removal of the wash media, the cells were resuspended in complete medium, then transferred into white walled, flat bottomed 96 well plates. […] Proliferation was measured using CellTiter Glo reagent using the standard protocol (Promega) and a Glomax multi+detection system (Promega). Percent proliferation inhibition was calculated using the following formula: % inhibition=(control−treatment)/control*100. Control is defined as vehicle alone. IC50 curves were generated using the nonlinear regression analysis (four parameter) with GraphPad Prism 6.
# [6] = Rat pharmacokinetics of nanoparticle formulations of 1 and 2; type: in vivo; details: rats, 1 mg/kg IV bolus, plasma, dose normalized
# Method: Nanoparticles are typically formulated for in vivo delivery in 10% sucrose and free drug formulations varied, but are typically dosed in 10% Solutol®/10% sucrose, or physiological saline. In this example conjugate 1 without nanoparticle formulation was dosed as a solution in 20% propyleneglycol/80% aqueous sucrose (10%).
# as §2, with “For rat” for “For”, “studies using nanoparticles as described herein,” for “studies,”, “post dose” for “post-dose”
# 50 uL of rat plasma was precipitated with 300 uL of DMF and the resulting supernatant was measured for compound content by LC-MS/MS electrospray ionization in the positive mode.
# Representative dose normalized rat pharmacokinetic curves for conjugate 1 and nanoparticle formulations of conjugate 1 are shown in FIG. 3.
# Representative dose normalized rat pharmacokinetic curves for conjugate 2 and nanoparticle formulations of conjugate 2 are shown in FIG. 4.
structure (smiles),measurement,setting,value
CCCCN(CCSSC[C@@H]1NC(=O)[C@@H](Cc2ccccc2)NC(=O)[C@H](CC(=O)O)NC(=O)CNC(=O)[C@H](CCCNC(=N)N)NC1=O)C(=O)O[C@@H](C(=O)OC1C[C@@]2(O)[C@@H](OC(=O)c3ccccc3)[C@@H]3[C@]4(OC(C)=O)CO[C@@H]4C[C@H](OC)[C@@]3(C)C(=O)[C@H](OC)C(=C1C)C2(C)C)[C@@H](NC(=O)OC(C)(C)C)c1ccccc1 (stereo partly drawn) [BT-568],AUC,[1],5.3 µM·h
same,tolerability observations post dose,[2],lethargy and labored breathing were observed immediately post dose in all three rats
same,mortality,[2]; three rats,one of the three animals died
CO[C@H]1C(=O)[C@]2(C)[C@@H](OC)C[C@H]3OC[C@@]3(OC(C)=O)[C@H]2[C@H](OC(=O)c2ccccc2)[C@]2(O)C[C@H](OC(=O)[C@H](OC(=O)OCCSSCCC(=O)N[C@H](Cc3ccccc3)C(=O)N[C@H]3CSSC[C@@H](C(=O)N[C@H](CO)[C@@H](C)O)NC(=O)[C@H]([C@@H](C)O)NC(=O)[C@H](CCCCN)NC(=O)[C@@H](Cc4c[nH]c5ccccc45)NC(=O)[C@H](Cc4ccccc4)NC3=O)[C@@H](NC(=O)OC(C)(C)C)c3ccccc3)C(C)=C1C2(C)C [Conjugate 1],solubility,[3],> 7000 µg/mL
same,solubility in aqueous media containing surfactant,[3],high solubility
same,AUC(0-inf),[4],2.19 µM·h
same,IC50,[5],110 nM
same,AUC(0-inf),"[6]; conjugate 1 and its nanoparticles, Table 11",18.3 µM·h
CCCCN(CCSSCCC(=O)N[C@H](Cc1ccccc1)C(=O)N[C@H]1CSSC[C@@H](C(=O)N[C@H](CO)[C@@H](C)O)NC(=O)[C@H]([C@@H](C)O)NC(=O)[C@H](CCCCN)NC(=O)[C@@H](Cc2c[nH]c3ccccc23)NC(=O)[C@H](Cc2ccccc2)NC1=O)C(=O)O[C@@H](C(=O)O[C@H]1C[C@@]2(O)[C@@H](OC(=O)c3ccccc3)[C@@H]3[C@]4(OC(C)=O)CO[C@@H]4C[C@H](OC)[C@@]3(C)C(=O)[C@H](OC)C(=C1C)C2(C)C)[C@@H](NC(=O)OC(C)(C)C)c1ccccc1 [Conjugate 3],IC50,[5],> 20000 nM
COc1cc2cc(c1Cl)N(C)C(=O)C[C@H](OC(=O)[C@H](C)N(C)C(=O)CCSSCCC(=O)N[C@H](Cc1ccccc1)C(=O)N[C@H]1CSSC[C@@H](C(=O)N[C@H](CO)[C@@H](C)O)NC(=O)[C@H]([C@@H](C)O)NC(=O)[C@H](CCCCN)NC(=O)[C@@H](Cc3c[nH]c4ccccc34)NC(=O)[C@H](Cc3ccccc3)NC1=O)[C@]1(C)O[C@H]1[C@H](C)[C@@H]1C[C@@](O)(NC(=O)O1)[C@H](OC)/C=C/C=C(\C)C2 [Conjugate 4],IC50,[5],229 nM
CC[C@H](C)[C@@H]([C@@H](CC(=O)N1CCC[C@H]1[C@H](OC)[C@@H](C)C(=O)N[C@H](C)[C@@H](O)c1ccccc1)OC)N(C)C(=O)[C@@H](NC(=O)[C@H](C(C)C)N(C)C(=O)OCc1ccc(NC(=O)[C@H](CCCNC(N)=O)NC(=O)[C@@H](NC(=O)CCCCCN2C(=O)CC(SCCC(=O)N[C@H](Cc3ccccc3)C(=O)N[C@H]3CSSC[C@@H](C(=O)N[C@H](CO)[C@@H](C)O)NC(=O)[C@H]([C@@H](C)O)NC(=O)[C@H](CCCCN)NC(=O)[C@@H](Cc4c[nH]c5ccccc45)NC(=O)[C@H](Cc4ccccc4)NC3=O)C2=O)C(C)C)cc1)C(C)C (stereo partly drawn) [Conjugate 5],IC50,[5],433 nM
COc1cc2cc(c1Cl)N(C)C(=O)C[C@H](OC(=O)[C@H](C)N(C)C(=O)CCSSCCC(=O)NCCOCCOCCOCCOCCOCCOCCOCCOCCC(=O)N[C@H](Cc1ccccc1)C(=O)N[C@H]1CSSC[C@@H](C(=O)N[C@H](CO)[C@@H](C)O)NC(=O)[C@H]([C@@H](C)O)NC(=O)[C@H](CCCCN)NC(=O)[C@@H](Cc3c[nH]c4ccccc34)NC(=O)[C@H](Cc3ccccc3)NC1=O)[C@]1(C)O[C@H]1[C@H](C)[C@@H]1C[C@@](O)(NC(=O)O1)[C@H](OC)/C=C/C=C(\C)C2 [Conjugate 6],IC50,[5],234 nM
COc1cc2cc(c1Cl)N(C)C(=O)[C@H](OC(=O)[C@H](C)N(C)C(=O)CCSSC[C@H](N)C(=O)N[C@@H](CCCCN)C(=O)N[C@@H](CCCCN)C(=O)N[C@@H](CCCCN)C(=O)N[C@@H](CCCCN)C(=O)N[C@H](Cc1ccccc1)C(=O)N[C@H]1CSSC[C@@H](C(=O)N[C@H](CO)[C@@H](C)O)NC(=O)[C@H]([C@@H](C)O)NC(=O)[C@H](CCCCN)NC(=O)[C@@H](Cc3c[nH]c4ccccc34)NC(=O)[C@H](Cc3ccccc3)NC1=O)[C@]1(C)O[C@H]1[C@H](C)[C@@H]1C[C@@](O)(NC(=O)O1)[C@H](OC)/C=C/C=C(\C)C2 [Conjugate 7] (H-C(X1)KKKK[dF]CF[dW]KTC[Thr(ol)]; disulfide 7-12),IC50,[5],955 nM
COc1cccc2c1C(=O)c1c(O)c3c(c(O)c1C2=O)C[C@@](O)(C(=O)COC(=O)CCCC(=O)N[C@H](Cc1ccccc1)C(=O)N[C@H]1CSSC[C@@H](C(=O)N[C@H](CO)[C@@H](C)O)NC(=O)[C@H]([C@@H](C)O)NC(=O)[C@H](CCCCN)NC(=O)[C@@H](Cc2c[nH]c4ccccc24)NC(=O)[C@H](Cc2ccccc2)NC1=O)C[C@@H]3O[C@H]1C[C@H](N)[C@H](O)[C@H](C)O1 [Example 2],AUC(0-inf),"[6]; conjugate 2 and its nanoparticles, Table 12",14.3 µM·h
"C[C@@H](O)[C@@H]1NC(=O)[C@H](CCCCN)NC(=O)[C@@H](Cc2c[nH]c3ccccc23)NC(=O)[C@H](Cc2ccccc2)NC(=O)[C@@H](NC(=O)[C@H](N)Cc2ccccc2)CSSC[C@@H](C(=O)N[C@H](CO)[C@@H](C)O)NC1=O [Octreotide, reference compound]",effect on cell proliferation,[5]; octreotide alone,no significant effect
